Reference: paper PMC9333989

Columns and labels:
Test in all cases: co-IP; FFLISA as a1; total Lck signal of all sucrose gradient fractions normalised to CD4 signal, given relative to WT
[1] = target: mouse CD4 Clasp mutant (C444S, C446S) (mouse) (UniProt P06332)
[2] = target: mouse CD4 H mutant (total ICD helix mutation, aa430–442 to …) (mouse) (UniProt P06332)
[3] = target: mouse CD4 HC mutant (total helix + clasp: aa430–442 replaced, C444S, C446S) (mouse) (UniProt P06332)
[4] = target: mouse CD4 LL mutant (L437A + L438A) (mouse) (UniProt P06332)
[5] = target: mouse CD4 TP mutant (TMD + Palm: G403V, G406L, C418S, C421S) (mouse) (UniProt P06332)

- total CD4–Lck abundance, percent of WT [1]: 31 % of WT
- CD4−Lck association, percent of WT [2]: 25 % of WT
- CD4−Lck association, percent of WT [3]: 14 % of WT
- total CD4–Lck abundance, percent of WT [4]: 49 % of WT
- total CD4–Lck abundance, percent of WT [5]: 123 % of WT
Substance: Lck (Src kinase) (from UniProt P06240 1-509) (enzyme)
